{
  "source": "patent US20170002074A1",
  "key": {"[1]": {"target": "Full-length huCD33 membrane construct with single mutation S115A (human) (UniProt P20138)", "sequence (P20138 18-364 S115A)": "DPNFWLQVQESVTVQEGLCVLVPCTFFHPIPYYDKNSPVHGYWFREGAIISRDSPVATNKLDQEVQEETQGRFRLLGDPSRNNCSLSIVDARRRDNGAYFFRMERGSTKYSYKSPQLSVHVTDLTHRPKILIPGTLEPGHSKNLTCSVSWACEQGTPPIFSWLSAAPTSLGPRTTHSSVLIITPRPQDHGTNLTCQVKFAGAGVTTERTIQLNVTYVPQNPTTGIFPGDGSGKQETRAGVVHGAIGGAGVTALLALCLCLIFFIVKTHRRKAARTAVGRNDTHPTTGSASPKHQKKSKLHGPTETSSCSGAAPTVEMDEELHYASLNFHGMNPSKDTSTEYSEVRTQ", "test": "FACS with Dylight 650 labelled isotype control on 293AD cells transiently expressing huCD33 S115A"}, "[2]": {"target": "Human CD33 (human) (UniProt P20138)", "sequence (P20138 18-364)": "as the sequence (P20138 18-364 S115A) above, with A98S counted along it", "test": "FACS with WM53-APC (BD-Bioscience) on HEK293AD cells stably expressing rhCD33 (positive control stain)"}, "[3]": {"target": "Full-length huCD33 membrane construct with single mutation S115A (human) (UniProt P20138)", "test": "FACS with WM53-APC (BD-Bioscience) on 293AD cells transiently expressing huCD33 S115A"}, "[4]": {"target": "Full-length huCD33 membrane construct with double mutation S102A/S115A (human) (UniProt P20138)", "sequence (P20138 18-364 S102A/S115A)": "as the sequence (P20138 18-364 S115A) above, with S85A counted along it", "test": "FACS with WM53-APC (BD-Bioscience) on 293AD cells transiently expressing huCD33 S102A/S115A"}, "[5]": {"target": "huCD33 R69G variant (human) (UniProt P20138)", "sequence (P20138 18-364 R69G)": "as the sequence (P20138 18-364 S115A) above, with R52G, A98S counted along it", "test": "FACS, control antibody, on 293AD cells labelled 'SNPG69R', taken as the SNP variant of paragraph 650"}, "[6]": {"target": "Construct-88B: CD33 Ig-like V (M17-V136 including spacer H137-H143) linked to an irrelevant Ig-like C (including TM/CD) (human)", "sequence (chain, as listed by the source limits assumed, form in doubt)": "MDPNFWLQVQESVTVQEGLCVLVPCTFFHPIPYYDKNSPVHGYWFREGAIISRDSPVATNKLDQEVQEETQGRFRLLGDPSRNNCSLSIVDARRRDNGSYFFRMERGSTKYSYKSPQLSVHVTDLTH", "test": "FACS on 293 cells transiently transfected with construct 88B, control antibody"}, "[7]": {"target": "Construct-88: irrelevant Ig-like V linked to a CD33 Ig-like C (R144-Q228 including TM/CD L229) (human)", "sequence (P20138 144-364)": "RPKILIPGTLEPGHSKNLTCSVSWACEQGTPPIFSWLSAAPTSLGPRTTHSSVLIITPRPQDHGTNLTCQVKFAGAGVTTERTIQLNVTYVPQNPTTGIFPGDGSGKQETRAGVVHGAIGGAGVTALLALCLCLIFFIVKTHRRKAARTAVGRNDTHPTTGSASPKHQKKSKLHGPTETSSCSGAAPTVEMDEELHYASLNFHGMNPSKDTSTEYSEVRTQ", "test": "FACS on 293 cells transiently transfected with construct 88, control antibody"}, "[8]": {"target": "Full-length huCD33 membrane construct with single mutation S115A (human) (UniProt P20138)", "test": "FACS with APC-labelled isotype control on 293AD cells transiently expressing huCD33 S115A"}, "[9]": {"target": "Human CD33 (human) (UniProt P20138)", "test": "FACS on 293-hCD33 cells, isotype control of the competition experiment"}},
  "data": [
    {"substance": "Iso-650 (antibody)", "values": [
      {"measurement": "Geom. Mean:FL4-H", "setting": "[1]", "result": 8.67}
    ]},
    {"substance": "WM53 (antibody)", "values": [
      {"measurement": "Geom. Mean:FL4-H", "setting": "[2]", "result": 1280},
      {"measurement": "Geom. Mean:FL4-H", "setting": "[3]", "result": 609},
      {"measurement": "Geom. Mean:FL4-H", "setting": "[4]", "result": 500}
    ]},
    {"substance": "mIgG1 (antibody)", "values": [
      {"measurement": "Geom. Mean:FL1-H", "setting": "[5]", "result": 5.78}
    ]},
    {"substance": "hgD-650 (antibody)", "values": [
      {"measurement": "Geom. Mean:FL4-H", "setting": "[6]", "result": 16.7},
      {"measurement": "Geom. Mean:FL4-H", "setting": "[7]", "result": 13.9}
    ]},
    {"substance": "gD (antibody)", "values": [
      {"measurement": "Geom. Mean:FL1-H", "setting": "[5]", "result": 5.83}
    ]},
    {"substance": "Iso-APC (antibody)", "values": [
      {"measurement": "Geom. Mean:FL4-H", "setting": "[8]", "result": 2.52}
    ]},
    {"substance": "Isotype (antibody)", "values": [
      {"measurement": "Geom. Mean:FL1", "setting": "[9]", "result": 3.58}
    ]}
  ]
}
